Experimental findings from US20150080315A1 are described below.

Assay [1] addresses HDAC complex / nucleosome remodeling and deacetylase (NuRD) complex in SNU-398 nuclear extracts. In words: cell-based or functional assay.
The target is the same in assay [2]. In words: fluorescence polarization competition; unlabeled peptide displaces FITC-labeled wild type peptide from complexes in SNU-398 nuclear extracts. (Fluorescence polarisation rises when a labelled molecule tumbles more slowly, as on binding a larger partner.)

Molecule “endogenous SALL4 (SNU-398 cells) (from UniProt Q9UJQ4 1-1053)” had an engraftment of human AML cells treated with wild type peptide in NSG mice in assay [1] of 0.5%.

B1: wild type 12-AA SALL4 peptide (…), unlabeled (peptide)
peptide: MSRRKQAKPQHI
In assay [2], B1 gave an IC50 of 5 µM.

What is called IC50 is the concentration that inhibits the measured activity by half. Lower therefore signals inhibition by little substance.
